Results from paper doi:10.1101/2023.07.11.548556, “Skeletal progenitor LRP1 deficiency causes severe and persistent skeletal defects with WNT/planar cell polarity dysregulation” (bioRxiv, 2023).
Blank lines part the entries; values can stand above or below the binder they belong to.

Molecular target: T1, Low-density lipoprotein receptor-related protein 1 (LRP1), purified human full-length (human, UniProt Q07954 20-4544)
T1 construct: Low-density lipoprotein receptor-related protein 1 (LRP1), human, purified full-length protein coated on the plate; also called full-length LRP1; Full-length sLRP1; source: purified
Assay: ELISA; solid-phase binding assay; human full-length LRP1 (10 nM in 50 mM Tris-HCl pH 7.5, 150 mM NaCl, 10 mM CaCl2) coated on microtiter plates; 0-200 nM Wnt in 5% BSA blocking solution, 30 min at RT; bound Wnt detected with a specific anti-Wnt antibody; signal of uncoated wells subtracted; apparent constants (KD,app) extrapolated from a one-phase decay nonlinear fit
Conditions: both partners purified

T1 sequence (Q07954 20-4544): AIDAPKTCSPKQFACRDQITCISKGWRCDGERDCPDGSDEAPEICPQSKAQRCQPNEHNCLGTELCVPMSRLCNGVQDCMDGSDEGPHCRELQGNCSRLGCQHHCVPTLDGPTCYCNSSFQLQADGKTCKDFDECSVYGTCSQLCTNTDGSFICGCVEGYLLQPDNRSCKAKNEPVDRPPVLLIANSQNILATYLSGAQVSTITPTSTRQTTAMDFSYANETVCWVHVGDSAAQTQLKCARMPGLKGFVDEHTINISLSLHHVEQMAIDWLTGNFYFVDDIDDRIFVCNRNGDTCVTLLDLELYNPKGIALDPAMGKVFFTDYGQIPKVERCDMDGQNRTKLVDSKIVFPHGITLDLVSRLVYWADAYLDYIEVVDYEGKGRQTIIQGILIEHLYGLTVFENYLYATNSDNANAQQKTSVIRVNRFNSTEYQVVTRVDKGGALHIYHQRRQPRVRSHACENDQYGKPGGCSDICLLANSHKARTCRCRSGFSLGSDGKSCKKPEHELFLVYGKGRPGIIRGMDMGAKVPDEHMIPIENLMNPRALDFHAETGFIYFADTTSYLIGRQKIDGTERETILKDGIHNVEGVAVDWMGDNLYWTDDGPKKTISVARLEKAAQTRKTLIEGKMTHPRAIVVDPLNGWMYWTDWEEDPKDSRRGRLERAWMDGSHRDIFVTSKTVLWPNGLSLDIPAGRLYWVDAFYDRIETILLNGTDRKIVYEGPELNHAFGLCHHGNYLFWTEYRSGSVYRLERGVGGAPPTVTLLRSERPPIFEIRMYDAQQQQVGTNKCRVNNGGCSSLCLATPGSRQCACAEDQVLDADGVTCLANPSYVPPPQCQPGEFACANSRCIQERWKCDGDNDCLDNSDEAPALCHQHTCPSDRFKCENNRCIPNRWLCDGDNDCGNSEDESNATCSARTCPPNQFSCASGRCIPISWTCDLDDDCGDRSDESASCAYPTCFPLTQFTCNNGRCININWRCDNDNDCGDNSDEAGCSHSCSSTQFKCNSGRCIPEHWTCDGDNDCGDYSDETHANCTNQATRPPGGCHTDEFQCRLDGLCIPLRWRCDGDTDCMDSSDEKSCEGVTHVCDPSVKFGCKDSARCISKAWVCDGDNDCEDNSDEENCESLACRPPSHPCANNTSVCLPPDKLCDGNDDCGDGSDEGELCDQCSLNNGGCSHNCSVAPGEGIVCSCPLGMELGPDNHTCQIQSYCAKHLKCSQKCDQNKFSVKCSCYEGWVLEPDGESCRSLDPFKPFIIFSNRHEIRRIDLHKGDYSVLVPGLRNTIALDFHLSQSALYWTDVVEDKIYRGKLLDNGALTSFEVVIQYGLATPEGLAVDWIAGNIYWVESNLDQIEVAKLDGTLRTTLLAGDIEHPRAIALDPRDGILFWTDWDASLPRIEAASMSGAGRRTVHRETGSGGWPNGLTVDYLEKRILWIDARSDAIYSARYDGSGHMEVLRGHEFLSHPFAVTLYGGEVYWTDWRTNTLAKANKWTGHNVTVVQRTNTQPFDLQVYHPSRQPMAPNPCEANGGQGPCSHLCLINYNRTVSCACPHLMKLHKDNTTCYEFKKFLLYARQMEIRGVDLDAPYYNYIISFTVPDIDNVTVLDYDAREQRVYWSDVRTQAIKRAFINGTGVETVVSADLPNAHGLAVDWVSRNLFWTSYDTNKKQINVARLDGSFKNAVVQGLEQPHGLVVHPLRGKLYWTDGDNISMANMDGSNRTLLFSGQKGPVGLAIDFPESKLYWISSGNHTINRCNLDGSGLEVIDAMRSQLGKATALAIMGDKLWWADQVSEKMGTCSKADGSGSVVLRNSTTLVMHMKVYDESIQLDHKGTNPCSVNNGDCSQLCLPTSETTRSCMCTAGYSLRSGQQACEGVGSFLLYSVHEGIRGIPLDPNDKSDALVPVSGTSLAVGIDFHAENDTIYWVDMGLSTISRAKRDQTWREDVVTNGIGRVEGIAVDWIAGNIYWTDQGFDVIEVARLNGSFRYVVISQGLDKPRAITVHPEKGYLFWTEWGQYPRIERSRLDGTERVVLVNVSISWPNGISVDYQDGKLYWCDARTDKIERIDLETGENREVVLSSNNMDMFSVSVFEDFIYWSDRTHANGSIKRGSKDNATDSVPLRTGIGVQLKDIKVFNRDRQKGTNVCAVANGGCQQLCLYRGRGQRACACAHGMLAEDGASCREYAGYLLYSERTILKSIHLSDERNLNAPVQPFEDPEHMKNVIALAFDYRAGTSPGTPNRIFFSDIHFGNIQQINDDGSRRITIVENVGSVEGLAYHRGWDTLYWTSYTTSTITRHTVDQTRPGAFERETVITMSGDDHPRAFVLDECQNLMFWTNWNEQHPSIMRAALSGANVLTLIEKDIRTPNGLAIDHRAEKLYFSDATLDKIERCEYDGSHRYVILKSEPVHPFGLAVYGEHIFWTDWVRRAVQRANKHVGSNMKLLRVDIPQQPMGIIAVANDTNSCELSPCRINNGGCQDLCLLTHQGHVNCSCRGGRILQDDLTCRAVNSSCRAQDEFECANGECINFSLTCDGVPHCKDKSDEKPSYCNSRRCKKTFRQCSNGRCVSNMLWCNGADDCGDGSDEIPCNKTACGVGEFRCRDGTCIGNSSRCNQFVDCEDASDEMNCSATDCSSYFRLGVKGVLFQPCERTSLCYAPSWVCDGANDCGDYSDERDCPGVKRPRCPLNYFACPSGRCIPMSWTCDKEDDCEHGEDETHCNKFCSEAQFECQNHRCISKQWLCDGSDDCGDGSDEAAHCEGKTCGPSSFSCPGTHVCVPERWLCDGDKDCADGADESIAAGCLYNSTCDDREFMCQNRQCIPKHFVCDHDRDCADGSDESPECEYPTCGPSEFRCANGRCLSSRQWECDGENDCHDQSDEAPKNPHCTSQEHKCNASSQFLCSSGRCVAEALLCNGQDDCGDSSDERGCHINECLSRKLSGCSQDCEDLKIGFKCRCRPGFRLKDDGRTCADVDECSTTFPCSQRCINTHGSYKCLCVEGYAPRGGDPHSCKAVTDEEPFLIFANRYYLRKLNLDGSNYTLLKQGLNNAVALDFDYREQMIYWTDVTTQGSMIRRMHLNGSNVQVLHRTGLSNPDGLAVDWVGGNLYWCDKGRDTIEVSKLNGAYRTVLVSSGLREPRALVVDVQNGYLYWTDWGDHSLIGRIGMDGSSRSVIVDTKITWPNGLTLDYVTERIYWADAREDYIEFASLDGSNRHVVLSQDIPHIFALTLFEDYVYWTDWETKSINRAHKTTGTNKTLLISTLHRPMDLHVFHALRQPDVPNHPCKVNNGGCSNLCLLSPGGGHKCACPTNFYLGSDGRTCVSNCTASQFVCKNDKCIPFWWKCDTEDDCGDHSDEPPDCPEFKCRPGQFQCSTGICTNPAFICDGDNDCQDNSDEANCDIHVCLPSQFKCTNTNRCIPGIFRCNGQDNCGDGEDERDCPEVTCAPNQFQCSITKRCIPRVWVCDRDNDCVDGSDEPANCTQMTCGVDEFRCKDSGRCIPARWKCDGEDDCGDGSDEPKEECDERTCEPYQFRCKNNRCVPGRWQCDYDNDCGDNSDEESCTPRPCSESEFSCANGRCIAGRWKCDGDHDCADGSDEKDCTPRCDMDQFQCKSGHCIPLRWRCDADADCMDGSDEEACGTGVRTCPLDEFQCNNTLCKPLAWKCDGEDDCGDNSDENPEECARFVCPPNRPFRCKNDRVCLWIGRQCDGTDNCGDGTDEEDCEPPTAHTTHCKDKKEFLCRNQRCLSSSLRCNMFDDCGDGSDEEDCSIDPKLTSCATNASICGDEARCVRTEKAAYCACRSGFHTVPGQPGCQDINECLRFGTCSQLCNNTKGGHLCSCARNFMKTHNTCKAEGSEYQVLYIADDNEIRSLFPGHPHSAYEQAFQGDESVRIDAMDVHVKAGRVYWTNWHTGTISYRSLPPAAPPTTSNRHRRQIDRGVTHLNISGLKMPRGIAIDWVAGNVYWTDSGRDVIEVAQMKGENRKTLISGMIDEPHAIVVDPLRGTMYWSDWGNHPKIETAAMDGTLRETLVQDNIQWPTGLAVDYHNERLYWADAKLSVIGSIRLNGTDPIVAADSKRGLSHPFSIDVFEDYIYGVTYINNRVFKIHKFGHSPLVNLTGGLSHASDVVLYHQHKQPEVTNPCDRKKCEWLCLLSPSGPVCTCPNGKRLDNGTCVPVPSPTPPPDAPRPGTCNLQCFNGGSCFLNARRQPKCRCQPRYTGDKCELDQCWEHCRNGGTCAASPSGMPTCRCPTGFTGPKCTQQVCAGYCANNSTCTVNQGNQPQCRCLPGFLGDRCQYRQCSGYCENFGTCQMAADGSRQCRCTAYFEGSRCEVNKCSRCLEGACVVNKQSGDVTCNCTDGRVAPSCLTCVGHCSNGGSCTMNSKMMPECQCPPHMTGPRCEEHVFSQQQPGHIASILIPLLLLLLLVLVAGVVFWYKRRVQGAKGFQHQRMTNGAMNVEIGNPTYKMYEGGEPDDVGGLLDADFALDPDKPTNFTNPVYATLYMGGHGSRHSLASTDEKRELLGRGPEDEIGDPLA

Kd: 42 nM
B1: Wnt11 (ligand, UniProt O96014 25-354, looked up)
chain: IKWLALSKTPSALALNQTQHCKQLEGLVSAQVQLCRSNLELMHTVVHAAREVMKACRRAFADMRWNCSSIELAPNYLLDLERGTRESAFVYALSAAAISHAIARACTSGDLPGCSCGPVPGEPPGPGNRWGGCADNLSYGLLMGAKFSDAPMKVKKTGSQANKLMRLHNSEVGRQALRASLEMKCKCHGVSGSCSIRTCWKGLQELQDVAADLKTRYLSATKVVHRPMGTRKHLVPKDLDIRPVKDSELVYLQSSPDFCMKNEKVGSHGTQDRQCNKTSNGSDSCDLMCCGRGYNPYTDRVVERCHCKYHWCCYVTCRRCERTVERYVCK
notes: Wnt11, purified protein; source: purified

Kd: > 200 nM
B2: Wnt3a (ligand, UniProt P56704 19-352, looked up)
chain: SYPIWWSLAVGPQYSSLGSQPILCASIPGLVPKQLRFCRNYVEIMPSVAEGIKIGIQECQHQFRGRRWNCTTVHDSLAIFGPVLDKATRESAFVHAIASAGVAFAVTRSCAEGTAAICGCSSRHQGSPGKGWKWGGCSEDIEFGGMVSREFADARENRPDARSAMNRHNNEAGRQAIASHMHLKCKCHGLSGSCEVKTCWWSQPDFRAIGDFLKDKYDSASEMVVEKHRESRGWVETLRPRYTYFKVPTERDLVYYEASPNFCEPNPETGSFGTRDRTCNVSSHGIDGCDLLCCGRGHNARAERRREKCRCVFHWCCYVSCQECTRVYDVHTCK
notes: Wnt3a, purified protein; source: purified

Kd: 31 nM
B3: Wnt5a (ligand, UniProt P41221 62-380, looked up)
chain: IIGAQPLCSQLAGLSQGQKKLCHLYQDHMQYIGEGAKTGIKECQYQFRHRRWNCSTVDNTSVFGRVMQIGSRETAFTYAVSAAGVVNAMSRACREGELSTCGCSRAARPKDLPRDWLWGGCGDNIDYGYRFAKEFVDARERERIHAKGSYESARILMNLHNNEAGRRTVYNLADVACKCHGVSGSCSLKTCWLQLADFRKVGDALKEKYDSAAAMRLNSRGKLVQVNSRFNSPTTQDLVYIDPSPDYCVRNESTGSLGTQGRLCNKTSEGMDGCELMCCGRGYDQFKTVQTERCHCKFHWCCYVKCKKCTEIVDQFVCK
notes: Wnt5a, purified protein; source: purified
